Source: patent US20130183702

Test system: T1, cholesterol-tagged, protease-sensitive polyacrylic acid block copolymer containing the peptide GSGRSAGC (SEQ ID NO: 20), embedded in polymer-caged liposomes (PCLs)
T1 sequence: GSGRSAGC

Substance: urokinase plasminogen activator (uPA)
- carboxyfluorescein release from PCLs (total fluorescent intensity), -uPA vs +uPA (25 ug/mL, fresh batch), second test: They show very little difference in total intensity and the p value is 0.6617 between the two, indicating that they are not different
- carboxyfluorescein release from PCLs (total fluorescent intensity), no uPA vs 25 ug/mL uPA, first test: there was very little difference between the no uPA sample and the uPA sample, indicating that the polymer caged liposome did not have the desired sensitivity to uPA (p=0.5173)
- carboxyfluorescein release from PCLs (total fluorescent intensity), no uPA vs renatured uPA, third test: there is a difference between the no uPA sample and the uPA sample with the uPA sample being significantly higher (p value 0.0071)
- change in conductance (current vs. time) after adding 10^-11 mol urokinase to MgSO4-loaded PCLs: A significant increase in conductance was observed due to the release of Mg^2+ and SO4^2- from the liposomes' hydrophilic interior
- fluorescence of cyanine 7.0 released from PCLs after adding urokinase-type plasminogen activator, recorded every 5 min: The highest peak was visible after 50 minutes of incubation time
